Measurements from patent US20130252987A1, “METHOD OF REGULATING PLASMA LIPOPROTEINS” (MCMASTER UNIVERSITY, priority 2010, published 2013).

Tests used:
HepG2 cells [1] = experiment: real-time quantitative PCR of mRNA expression; type: cell-based, human
Protocol: Total RNA was isolated from cell lysates (RNeasy Mini Kit, Qiagen, Germantown, Md.) and used as a template for cDNA synthesis (QuantiTech Reverse Transcription Kit, Qiagen, Germantown, Md.). Quantitative real-time PCR was performed using an Applied Biosystems 7300 Real Time PCR system (Carlsbad, Calif.) according to the manufacturer's instructions and with the SYBR green master kit (Qiagen, Germantown, Md.). Primers for the real-time PCR internal control gene cyclophilin A (sense, 5′-[…]-3′ (SEQ ID NO:3); antisense, 5′-[…]-3′ (SEQ ID NO:4)) were synthesized (IDT, Coralville, Iowa). Primers for succinate degydrogenase (SDH) (another real-time PCR internal control gene), apoB, microsomal triglyceride transfer protein (MTP), Srebp1, Srebp2, acetyl-coA carboxylase (ACC), HMG-coA reductase, HMG-coA synthase, squalene synthase (SS), the LDL receptor, PCSK9, fatty acid synthase (FAS), […] (SCD), DGAT1 and DGAT2 were purchased (proprietary sequences not available) (Qiagen, Germantown, Md.). The values reported for each mRNA were corrected to the cyclophilin A and SDH mRNA values.
Total RNA was isolated from cell lysates (RNeasy Mini Kit, Qiagen, MD) and used as a template for cDNA synthesis (QuantiTech Reverse Transcription Kit, Qiagen, MD). Quantitative real-time PCR was performed using an Applied Biosystems 7300 Real-Time PCR system (Carlsbad, Calif.) according to the manufacturer's instructions and with the SYBR green kit (Qiagen, MD). Primers for the real-time PCR internal control gene cyclophilin A, as identified in Example 1, were synthesized (IDT, IA). Primers for succinate dehydrogenase (SDH) (another real-time PCR internal control gene), SREBP2, HMG-CoA reductase, the LDL receptor and PCSK9 were purchased (proprietary sequences not available) (Qiagen, MD). The values reported for each mRNA were corrected to the cyclophilin A and SDH mRNA values.

HepG2 cells [2] = experiment: FPLC lipoprotein profile of HepG2 cell media; type: cell-based, human; settings: 50 ng/mL, 24 hour
Protocol: Lipids from HepG2 cell extracts were quantified by gas chromatography (GC) as described in Sahoo et al. (J. Lipid Res. 45:1122-1131). Briefly, cell extracts were incubated with phospholipase C (Sigma, ON) to remove polar head groups, then extracted in the presence of internal standard by the method of Folch et al. (J Biol Chem 226:497-509). Extracted lipids were passed through a sodium sulfate column to remove aqueous contaminants, and derivatized with Sylon BFT (Supelco, ON) to cap reactive hydroxyl and carboxyl groups. Derivatized lipids were dissolved in hexane and injected onto a Zebron ZB-5 column (Phenomenex, Torrance, Calif.) in an Agilent 6890 GC instrument. Lipoprotein Profiles. HepG2 media from 6-10 cm plates was collected and concentrated using an Amicon Centriprep concentrator 50 K and lipoprotein classes separated by fast protein liquid chromatography (FPLC) on a Superose 6 10/30 gel filtration column (Amersham, UK) followed by inline post-column reaction with either Infinity Triglyceride or Infinity Cholesterol reagent (Thermo Scientific, West Palm Beach, Fla.) and measurement of absorbance @ 500 nm.
The characteristics of the apoB-containing lipoprotein particles produced as a result of treatment of human hepatocytes with human resistin was determined. […]

human hepatocytes = experiment: cellular apoB100 protein expression in primary human hepatocytes; type: cell-based; settings: 50 ng/mL, 24 hours
Protocol: Primary Cells: Fresh wild-type rat and mouse primary heptaocytes were supplied by CellzDirect (Invitrogen, NC) in a 6-well collagen coated plate. Upon arrival, the storage media was removed and incubation media (Williams E Medium, phenol red free, with incubation supplement pack, Gibco, NC) was added according to manufactures' instructions. The cells were incubated at 37° C. with 5% CO2 for 16 hours prior to human resistin (50 ng/mL) treatment for 24 hours. Cryopreserved plateable human hepatocytes, metabolism qualified from multiple normal human donors, were supplied by CellzDirect (Invitrogen, NC). Upon arrival, the cells (4-8 million in 1 mL), according to the manufacturer's instruction, were added to 48 mL warmed thawing medium (CHRM® Medium, Invitrogen, NC) and centrifuged at 100×g for 10 min at room temperature. The pellet was re-suspended in 4 mL plating medium (Williams E Medium, phenol red free, with maintenance supplement pack and 10% FBS, Gibco, NC). The cells were stained by Trypan Blue (Sigma, Canada) and counted by a haemocytometer, followed by seeding 1×10^6 cells/well in a 6-well collagen coated plate (CellzDirect, Invitrogen, NC). The cells were incubated at 37° C. with 5% CO2 for 4 hours to allow the cells to adhere. The plating media was replaced and cell incubated for 16 hours prior to human resistin treatment for 24 hours. […]

B1: human resistin: recombinant lyophilized purified human resistin (Calbiochem); cysteine-rich cytokine, single 12 kDa band (protein)
chain: KTLCSMEEAINERIQEVAGSLIFRAISSIGLECQSVTSRGDLATCPRGFAVTGCTCGSACGSWDVRAETTCHCQCAGMDWTGARCCRVQP
apoB mRNA expression (HepG2 cells [1]; 50 ng/mL, 24 hours): significant increase | expression of DGAT1 (HepG2 cells [1]; 50 ng/mL, 24 hours): increased to smaller but significant extents | expression of SCD (HepG2 cells [1]; 50 ng/mL, 24 hours): increased to smaller but significant extents | expression of the LDL RECEPTOR gene (HepG2 cells [1]; 50 ng/mL, 24 hours): increased | expression of the PCSK9 gene (HepG2 cells [1]; 50 ng/mL, 24 hours): increased | increase in the expression of ACC (HepG2 cells [1]; 50 ng/mL, 24 hours): 3 fold | increase in the expression of HMG-CoA REDUCTASE (HepG2 cells [1]; 50 ng/mL, 24 hours): 2 fold | increase in the expression of HMG-CoA SYNTHASE (HepG2 cells [1]; 50 ng/mL, 24 hours): 2 fold | increase in the expression of SQUALENE SYNTHASE (HepG2 cells [1]; 50 ng/mL, 24 hours): 2 fold | mRNA expression of SREBP1 (HepG2 cells [1]; 50 ng/mL, 24 hours): significantly increased | mRNA expression of SREBP2 (HepG2 cells [1]; 50 ng/mL, 24 hours): significantly increased | apoB mRNA expression (HepG2 cells [1]; 100 ng/mL dose, after dose-response increase from 0 to 50 ng/mL): decreased | increase in secreted VLDL triglycerides and cholesterol relative to control untreated cells (HepG2 cells [2]): 8-9 fold | lipid contents of the secreted LDL or HDL fractions (HepG2 cells [2]): virtually no change | increase in cellular apoB protein expression versus untreated control cells (human hepatocytes): 40-50%
